From patent US20090203538A1 (INSTITUTE FOR ANTIBODIES, published 2009) come the findings set out here.

Positions count from the first letter of the chain named.

First the molecules themselves.
B1: 015-102 antibody (antibody, V domains shown)
VH: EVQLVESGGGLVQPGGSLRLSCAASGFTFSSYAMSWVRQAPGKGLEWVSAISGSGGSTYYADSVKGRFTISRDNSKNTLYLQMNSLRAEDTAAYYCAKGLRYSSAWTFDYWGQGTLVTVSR
VL: QSALTQPASVSGSPGQSITISCTGTSSDVGGYNYVSWYQQHPGKAPKLMIYDVSNRPSGVSNRFSGSKSGNTASLTISGLQAEDEADYYCSSYTSSSTPVVFGGGTKLTVLG
notes: Clone of the scFv-CL-cp3 phage library
B2: 015-143 antibody (antibody, V domains shown)
VH: QVQLVQSGAEVKKPGASVKVSCKASGYTFTSYGISWVRQAPGQGLEWMGWISAYNGNTNYAQKLQGRVTMTTDTSTSTAYMELRSLRSDDTAVYYCARAFRDWGSLRDYWGQGTLVTVSR
VL: QSVLTQPPSVSAAPGQKVTISCSGSSSNIGNNYVSWYQQLPGTAPKLLIYDNNKRPSGIPDRFSGSKSGTSATLGITGLQTGDEADYYCGTWDSSLSAVVFGGGTKLTVLG
notes: as for B1
B3: 039-016 antibody (antibody, V domains shown)
VH: EVQLVESGGNLVQPGGSLRLSCAASGFTFSRYWMTWVRQAPGKGLEWISSVSSSGSTIYYADSVKGRFTISRDNAKNSLYLQMNSLRVEDTAVYYCARDYWPGWYFDLWGRGTLVTVSR
VL: QAVLTQPSSLSASPGASASLTCTFRSDISVGSYRIYWYQQKPGSPPQFLLKYTSDSDKQQGSGVPSRFSGSKDVSANAGILLISGLQSEDEADYYCMTWHNTASVFGGGTKLAVLG
notes: as for B1
B4: 075-110 antibody (antibody, V domains shown)
VH: B3 VH with N10G, A23S, R31N, V51I
VL: B3 VL
notes: as for B1
B5: 075-024 antibody (antibody, V domains shown)
VH: QVQLVQSGAEVKKPGASVKVSCKASGYTFTSYGISWVRQAPGQGLEWMGWISAYNGNTNYAQKLQGRVTMTTDTSTSTAYMELRSLRSDDTAVYYCARGGAFDIWGQGTTVTVSR
VL: QSVLTQPPSVSGAPGQRVTISCTGSSSNIGAGYHVYWYQQLPGKAPKLLIYVNSNRPSGVPDRFSGSKSGTSASLAITGLQADDEADYYCQSYDSSLSGRVFGGGTKLTVLG
notes: as for B1
B6: 086-032 antibody (antibody, V domains shown)
VH: QVQLVQSGSEVKKPGASVKVSCKTSGYIFTDYYMHWVRQAPGKGLEWMGWINPNSGGTYYAQKFHGRVTMTSDTSISTAYMELSSLRSDDTAIYYCAREDYDILTGYYPASGHGDYWGQGTLVTVSR
VL: QAVVTQEPSLTVSPGGTVTLTCASSTGAVTSGFLANWFQQKPGQTPRSLIYKTSNKHPWTPARFSGSLLGGKAALTLSGVQPEDEADYYCLLLSGGAWVFGGGTKLSVLG
notes: as for B1
B7: 086-138 antibody (antibody, V domains shown)
VH: B6 VH with Y107F
VL: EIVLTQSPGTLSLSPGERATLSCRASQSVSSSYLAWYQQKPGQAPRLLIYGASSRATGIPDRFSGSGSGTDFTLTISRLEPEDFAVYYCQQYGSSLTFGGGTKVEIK
notes: as for B1
B8: 015-209 antibody (antibody, V domains shown)
VH: EVQLVESGAEVKKPGESLKISCKGSGYSFTSYWIGWVRQMPGKGLEWMGIIYPGDSDTRYSPSFQGQVTISADKSISTAYLQWSSLKASDTAMYYCARLAVGAYQYYFDYWGQGTLVTVSR
VL: QTVVTQEPSFSVSPGGTVTLTCGLSSGSVSTSYYPSWYQQTPGQAPRTLIYSTNTRSSGVPDRFSGSILGNKAALTITGAQADDESDYYCVLYMGSGISVFGGGTKLTVLG
notes: as for B1
B9: 086-182 antibody (antibody, V domains shown)
VH: QVQLVQSGAEVKKPGESLKISCKGSGYSFTSYWIGWVRQMPGKGLEWMGIIYPGDSDTRYSPSFQGQVTISADKSISTAYLQWSSLKASDTAMYYCARHGMTSGYVAHNDYWGQGTLVTVSR
VL: B8 VL with S99W
notes: as for B1
B10: 086-036 antibody (antibody, V domains shown)
VH: QVQLVQSGAEVKKPGESLKISCKGSGYSFTSYWIGWVRQMPGKGLEWMGIIYPGDSDARYSPSFQGQVTISADKSISTAYLQWSSLKASDTAMYYCARLTGSSYYDSSGYSSYGMDVWGQGTTVTVSR
VL: B8 VL with Y38F, K106Q
notes: as for B1
B11: 086-035 antibody (antibody, V domains shown)
VH: QVQLVQSGAEVKKPGESLKISCEGSGYTFTSYWIGWVRQMPGKDLEWMGIIYPGDSDTRYSPSFQGQVTISVDKSISTAYLQWSSLKASDTAMYYCARHDVVDGYNTGMDVWGQGTTVTVSR
VL: B8 VL with S11T, Y51S, K72R, S99W
notes: as for B1
B12: 086-061 antibody (antibody, V domains shown)
VH: QVQLVQSGAEVKKPGESLKISCKGSGYSFTSYWIGWVRQMPGKGLEWMGIIYPGDSDTRYSPSFQGQVTISADKSISTAYLQWSSLKASDTAMYYCARHNSNYYYYYMDVWGKGTLVTVSR
VL: B8 VL
notes: as for B1
B13: 053-216 antibody (antibody, V domains shown)
VH: EVQLVESGGGLIRPGGSLRLSCTASGFTFSSYTMNWVRQAPGKGLEWLSYISGGSGTKFYADSVKGRFTVSRDNAKNSLYLEMNSLRPEDTAVYYCALVSYSSPGFDYWGQGTLVTVSS
VL: SYELTQPPSVSVSPGQTASITCSGDKLGDKYVYWYQQKPGQSPILLIFQDSERPSGIPERFSGSNSGNTATLTISGTQAMDEADYYCQAWDSSAAVFGGGTKLTVLG
notes: as for B1
B14: 015-136 antibody (antibody, V domains shown)
VH: QVQLVQSGSELKKPGASVKVSCKASGYIFTRYGINWVRQAPGQGLEWMGWINTNTGNPTYAQGFTGRVVFSLDTSVSTAYLQISSLKAEDTAMYYCAISSGFGYYFDYWGQGTLVTVSR
VL: DIQMTQSPSSVSASVGDRVTITCRASQSISRWLAWYQQKPGKAPKFLIYAGSSLQSGVPSRFSGSGSGTDFTLTISSLQPEDFATYYCQQTNSFPLTFGGGTKVEIK
notes: as for B1
B15: 015-044 antibody (antibody, V domains shown)
VH: QVQLQESGPGLVKPSETLSLTCTVSGGSISSSSYYWGWIRQPPGKGLEWIGSIYYSGSTYYNPSLKSRVTISVDTSKNQFSLKLSSVTAADTAVYYCAMRAYGSGSYDYWGQGTLVTVSR
VL: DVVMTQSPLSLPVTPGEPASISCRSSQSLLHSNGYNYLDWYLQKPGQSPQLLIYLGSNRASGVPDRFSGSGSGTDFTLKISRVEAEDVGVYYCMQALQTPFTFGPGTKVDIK
notes: as for B1

This experiment deals with T1, HER2 (Homo sapiens (Human), UniProt P04626 23-1255).
T1 construct: Native protein on cancer cell lines; also called erbB-2; ErbB2
Put plainly: antigen assigned by the filing's classifying and identification method; details for this clone not given.
Regarding B1, the binding result is listed as “binds”.

B2: the binding result is “binds”.

Consider B3, for which the binding result was “binds”.

With B4, the binding result is “binds”.

With B5, the binding result was “binds”.

As for B6, the binding result is listed as “binds”.

Regarding B7, the binding result is listed as “binds”.

Regarding B8, the binding result was “binds”.

Regarding B9, the binding result is on record as “binds”.

B10: the binding result was “binds”.

Consider B11, for which the binding result is reported as “binds”.

On to B12, for which the binding result is given as “binds”.

Regarding B13, the binding result is “binds”.

Consider B14, for which the binding result is listed as “binds”.

Take B15: the binding result is listed as “binds”.
